From PMC8026907

T1: CRP-MTB (cAMP receptor protein, wild type) (Mycobacterium tuberculosis, UniProt P9WMH3 1-224)
T1 sequence: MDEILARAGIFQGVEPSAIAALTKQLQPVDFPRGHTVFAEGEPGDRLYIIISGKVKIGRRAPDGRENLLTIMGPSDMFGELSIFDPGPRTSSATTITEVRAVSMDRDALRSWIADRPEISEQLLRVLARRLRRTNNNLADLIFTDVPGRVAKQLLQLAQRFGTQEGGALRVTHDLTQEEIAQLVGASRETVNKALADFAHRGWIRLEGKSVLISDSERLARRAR

B1: SerC promoter 32-bp, fluorescein (dsDNA)
DNA 1: GCGCGTAGTGTGAACAAGCTCACATGCAAGCC
DNA 2: GGCTTGCATGTGAGCTTGTTCACACTACGCGC
B2: SerC promoter 20-bp, fluorescein (dsDNA)
DNA 1: AGTGTGAACAAGCTCACATG
DNA 2: CATGTGAGCTTGTTCACACT

Tests used:
Details in all cases: protein: recombinant; tags: His-tag (pET-3a); chain copies: 2; blunt
[1] = biological target: T1, CRP-MTB (cAMP receptor protein, wild …); assay: fluorescence anisotropy; 0.1 mM cAMP
[2] = biological target: T1, CRP-MTB (cAMP receptor protein, wild …); assay: fluorescence anisotropy; no cAMP (apo)
[3] = biological target: T1, CRP-MTB (cAMP receptor protein, wild …); assay: fluorescence anisotropy; 1 mM cAMP

Binder	Ka [1]	Ka [2]	Ka [3]
B1	4.5 ± 1.2 1e8 M-1	2.3 ± 0.9 1e8 M-1	4.2 ± 1.7 1e8 M-1
B2	–	0.12 ± 0.02 1e8 M-1	0.5 ± 0.1 1e8 M-1
